Results taken from US5811533, “High-affinity oligonucleotide ligands to vascular endothelial growth factor (VEGF)” (NeXstar Pharmaceuticals, Inc.).

Columns and labels:
[1] = target: T1, VEGF165 (recombinant human vascular endothelial growth factor, 165 aa form) (Homo sapiens, UniProt P15692-4 P15692-4:27-191); assay: filter; PBS, 0.01% HSA, 37 C; Kd1, X1 0.45, Kd2 21 nM; conditions: tags: gift from N. Ferrara, Genentech; chain copies: 2 (dimer, stated); label: 32P
Method: (§1) Internally-labeled RNA ligands used for binding studies were prepared by in vitro transcription using T7 RNA polymerase (Milligan et al. (1987) Nucl. Acids Res. 15:8783) and were purified on denaturing polyacrylamide gels to ensure size homogeneity. All RNA ligands were diluted to about 1 nM in PBS, denatured at 90° C. for 2 minutes, and then cooled on ice prior to incubation with the protein. This denaturation/renaturation cycle performed at high dilution is necessary to ensure that the RNA is essentially free from dimers and other higher order aggregates. Concentrations of the stock solutions of VEGF, from which other dilutions were made, were determined from the absorbance reading at 280 nm using the calculated value for ε280 of 46,600 M^-1cm^-1 for the VEGF dimer (Gill et al. (1989) Anal. Biochem. 182:319). Data sets that define the binding curves were fit to either eq. 2 or eq. 5 by the non-linear least squares method using the software package Kaleidagraph (Synergy Software, Reading, Pa.). […]

[2] = target: T1, VEGF165 (recombinant human vascular …); assay: filter; Kd1, X1 0.42, Kd2 ~100 nM; conditions: tags: gift from N. Ferrara, Genentech; chain copies: 2 (dimer, stated)
[3] = target: T1, VEGF165 (recombinant human vascular …); assay: filter; PBS, 0.01% HSA, 37 C; Kd1, X1 0.70, Kd2 38 nM; conditions: tags: gift from N. Ferrara, Genentech; chain copies: 2 (dimer, stated); label: 32P
Method: as §1

[4] = target: T1, VEGF165 (recombinant human vascular …); assay: filter; monophasic; conditions: tags: gift from N. Ferrara, Genentech; chain copies: 2 (dimer, stated)
[5] = target: T1, VEGF165 (recombinant human vascular …); assay: filter; PBS, 0.01% HSA, 37 C; Kd1, X1 0.19, Kd2 10 nM; conditions: tags: gift from N. Ferrara, Genentech; chain copies: 2 (dimer, stated); label: 32P
Method: as §1

[6] = target: T1, VEGF165 (recombinant human vascular …); assay: filter; Kd1, X1 0.50, Kd2 15 nM; conditions: tags: gift from N. Ferrara, Genentech; chain copies: 2 (dimer, stated)
[7] = target: T1, VEGF165 (recombinant human vascular …); assay: filter; PBS, 0.01% HSA, 37 C; Kd1, X1 0.76, Kd2 182 nM; conditions: tags: gift from N. Ferrara, Genentech; chain copies: 2 (dimer, stated); label: 32P
Method: as §1

[8] = target: antithrombin III (UniProt P01008 P01008:33-464); assay: filter; specificity; conditions: label: 32P
antithrombin III, sequence (P01008 33-464, one chain of several): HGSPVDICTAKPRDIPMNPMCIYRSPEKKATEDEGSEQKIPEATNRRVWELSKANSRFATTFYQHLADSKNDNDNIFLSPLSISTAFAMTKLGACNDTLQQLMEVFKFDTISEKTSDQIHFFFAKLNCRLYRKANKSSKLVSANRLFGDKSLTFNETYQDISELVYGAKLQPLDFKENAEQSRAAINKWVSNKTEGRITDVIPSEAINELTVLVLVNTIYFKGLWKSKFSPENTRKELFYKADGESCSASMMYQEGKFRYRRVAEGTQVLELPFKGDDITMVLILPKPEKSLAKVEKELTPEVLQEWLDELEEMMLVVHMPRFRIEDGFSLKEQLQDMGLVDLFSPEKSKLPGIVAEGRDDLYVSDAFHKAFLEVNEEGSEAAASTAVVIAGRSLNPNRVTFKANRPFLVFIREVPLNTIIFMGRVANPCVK
Method: (§2) Dissociation constants were determined using the nitrocellulose filter partitioning technique.

[9] = target: bFGF (UniProt P09038 P09038:143-288); assay: filter; specificity; conditions: label: 32P
bFGF, sequence (P09038 143-288, one chain of several): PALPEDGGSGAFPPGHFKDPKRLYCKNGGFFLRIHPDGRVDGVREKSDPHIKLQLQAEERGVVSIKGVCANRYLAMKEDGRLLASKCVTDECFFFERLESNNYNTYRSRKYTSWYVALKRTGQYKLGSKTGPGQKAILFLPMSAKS
Method: as §2

[10] = target: T1, VEGF165 (recombinant human vascular …); assay: filter; PBS, 0.01% HSA, 37 C; monophasic; conditions: tags: gift from N. Ferrara, Genentech; chain copies: 2 (dimer, stated); label: 32P; bulged hairpin
Method: as §1

[11] = target: T1, VEGF165 (recombinant human vascular …); assay: inhibition; VEGF receptor binding; conditions: tags: gift from N. Ferrara, Genentech; chain copies: 2 (dimer, stated)
[12] = target: T1, VEGF165 (recombinant human vascular …); assay: filter; conditions: tags: gift from N. Ferrara, Genentech; chain copies: 2 (dimer, stated)
[13] = target: T1, VEGF165 (recombinant human vascular …); assay: filter; Kd1, X1 0.54, Kd2 9 nM; conditions: tags: gift from N. Ferrara, Genentech; chain copies: 2 (dimer, stated)
[14] = target: T1, VEGF165 (recombinant human vascular …); assay: filter; PBS, 0.01% HSA, 37 C; Kd1, X1 0.40, Kd2 11 nM; conditions: tags: gift from N. Ferrara, Genentech; chain copies: 2 (dimer, stated); label: 32P
Method: as §1

[15] = target: T1, VEGF165 (recombinant human vascular …); assay: filter; PBS, 0.01% HSA, 37 C; Kd1, X1 0.53, Kd2 31 nM; conditions: tags: gift from N. Ferrara, Genentech; chain copies: 2 (dimer, stated); label: 32P; asymmetrical internal loop
Method: as §1

[16] = target: T1, VEGF165 (recombinant human vascular …); assay: filter; Kd1, X1 0.82, Kd2 10-100 nM; conditions: tags: gift from N. Ferrara, Genentech; chain copies: 2 (dimer, stated)
[17] = target: T1, VEGF165 (recombinant human vascular …); assay: filter; PBS, 0.01% HSA, 37 C; Kd1, X1 0.73, Kd2 82 nM; conditions: tags: gift from N. Ferrara, Genentech; chain copies: 2 (dimer, stated); label: 32P
Method: as §1

[18] = target: T1, VEGF165 (recombinant human vascular …); assay: filter; PBS, 0.01% HSA, 37 C; Kd1, X1 0.54, Kd2 181 nM; conditions: tags: gift from N. Ferrara, Genentech; chain copies: 2 (dimer, stated); label: 32P
Method: as §1

[19] = target: T1, VEGF165 (recombinant human vascular …); assay: inhibition; VEGF receptor binding; single value printed in Ki column; conditions: tags: gift from N. Ferrara, Genentech; chain copies: 2 (dimer, stated)
[20] = target: T1, VEGF165 (recombinant human vascular …); assay: filter; Kd1, X1 0.74, Kd2 ~100 nM; conditions: tags: gift from N. Ferrara, Genentech; chain copies: 2 (dimer, stated)
[21] = target: T1, VEGF165 (recombinant human vascular …); assay: filter; PBS, 0.01% HSA, 37 C; Kd1, X1 0.56, Kd2 21 nM; conditions: tags: gift from N. Ferrara, Genentech; chain copies: 2 (dimer, stated); label: 32P
Method: as §1

[22] = target: T1, VEGF165 (recombinant human vascular …); assay: filter; Kd1, X1 0.79, Kd2 ~100 nM; conditions: tags: gift from N. Ferrara, Genentech; chain copies: 2 (dimer, stated)
[23] = target: T1, VEGF165 (recombinant human vascular …); assay: filter; Kd1, X1 0.68, Kd2 ~100 nM; conditions: tags: gift from N. Ferrara, Genentech; chain copies: 2 (dimer, stated)
[24] = target: T1, VEGF165 (recombinant human vascular …); assay: filter; PBS, 0.01% HSA, 37 C; Kd1, X1 0.82, Kd2 42 nM; conditions: tags: gift from N. Ferrara, Genentech; chain copies: 2 (dimer, stated); label: 32P
Method: as §1

[25] = target: T1, VEGF165 (recombinant human vascular …); assay: filter; PBS, 0.01% HSA, 37 C; Kd1, X1 0.76, Kd2 180 nM; conditions: tags: gift from N. Ferrara, Genentech; chain copies: 2 (dimer, stated); label: 32P; bulged hairpin
Method: as §1

T1 sequence (P15692 other isoform, or with tags, fused parts or gaps): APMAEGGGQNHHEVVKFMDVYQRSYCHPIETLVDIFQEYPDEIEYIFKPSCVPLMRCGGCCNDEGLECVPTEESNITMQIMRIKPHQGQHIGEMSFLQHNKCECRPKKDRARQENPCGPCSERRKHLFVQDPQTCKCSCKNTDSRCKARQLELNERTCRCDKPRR

B1: ligand 84 (ssRNA)
RNA: GGGAGCUCAGAAUAAACGCUCAAUAGUUGGAGGCCUGUCCUCGCCGUAGAGCGUUCGACAUGAGGCCCGGAUCCGGC
Kd [1]: 0.82 nM

B2: 14A (ssRNA)
RNA: GGGAGACAAGAAUAACGCUCAAGCAACAGAGGCUGAUGGUAGACGCCGGCCAUUCGACAGGAGGCUCACAACAGGC
modifications: 2'-NH2 pyrimidines
Kd [2]: 0.7 nM

B3: ligand 44 (ssRNA)
RNA: GGGAGCUCAGAAUAAACGCUCAAGCUUGAUGGGUGACACACGUCAUGCCGAGCUUCGACAUGAGGCCCGGAUCCGGC
Kd [3]: 1.7 nM

B4: 23A (ssRNA)
RNA: GGGAGACAAGAAUAACGCUCAAGAGGCUGAUGGCAGACGCGGCCGAAGACAUUCGACAGGAGGCUCACAACAGGC
modifications: 2'-NH2 pyrimidines
Kd [4]: 2.8 nM

B5: ligand 40 (ssRNA)
RNA: GGGAGCUCAGAAUAAACGCUCAAGACCCAUCGUCAACGGUUGAGUCUGUCCCGUUCGACAUGAGGCCCGGAUCCGGC
Kd [5]: 0.19 nM

B6: 32B (ssRNA)
RNA: GGGAGGACGAUGCGGCAACAUUGGCACCAAUGCUCUGUGUUAAUGUGGGGUGGGAACGGCGCCGCAGACGACUCGCCCGA
modifications: 2'-NH2 pyrimidines
Kd [6]: 0.05 nM

B7: ligand 100t (ssRNA)
RNA: GGCCGGUAGUCGCAUGGCCCAUCGCGCCCGG
Kd [7]: 0.42 nM
Kd [8]: 3 µM
Kd [9]: 1000 nM

B8: ligand 40t (ssRNA)
RNA: GGUCAACGGUUGAGUCUGUCCCGUUCGAC
Kd [10]: 20 nM

B9: 33t (ssDNA)
DNA: CCCGTCTTCCAGACAAGAGTGCAGGG
Ki [11]: 3 nM
Kd [12]: 0.7 nM

B10: 44B (ssRNA)
RNA: GGGAGGACGAUGCGGAACCGAGUCGUGUGGGUUGGGGCUCCAGUACAUCCCCGGUCUGGGUGUCAGACGACUCGCCCGA
modifications: 2'-NH2 pyrimidines
Kd [13]: 0.14 nM

B11: ligand 126 (ssRNA)
RNA: GGGAGCUCAGAAUAAACGCUCAAACGGUUCUGUGUGUGGACUAGCCGCGGCCGUUCGACAUGAGGCCCGGAUCCGGC
Kd [14]: 0.14 nM

B12: ligand 84t (ssRNA)
RNA: GGCUCAAUAGUUGGAGGCCUGUCCUCGCCGUAGAGC
Kd [15]: 1.8 nM

B13: 34B (ssRNA)
RNA: GGGAGGACGAUGCGGUGUGGUCAAUGUGGGGUAGGGCUGGUAGGGCAUUCCGUACUGGUGUGGUCAGACGACUCGCCCGA
modifications: 2'-NH2 pyrimidines
Kd [16]: 0.068 nM

B14: ligand 44t (ssRNA)
RNA: GGAAGCUUGAUGGGUGACACACGUCAUGCCGAGCU
Kd [17]: 0.48 nM
Kd [8]: 12 µM
Kd [9]: 600 nM

B15: ligand 126t (ssRNA)
RNA: GGAACGGUUCUGUGUGUGGACUAGCCGCGGCCGUU
Kd [18]: 1.4 nM

B16: NX-107 (ssRNA)
RNA: ACCCUGAUGGUAGACGCCGGGGUG
modifications: 2'-NH2 pyrimidines
Ki [19]: 1 nM

B17: 26B (ssRNA)
RNA: GGGAGGACGAUGCGGCACCUUCGUGGGGUCAAGGAGGGUCGCGAGGCCGCAGGAUCAACCGUGUGCAGACGACUCGCCCGA
modifications: 2'-NH2 pyrimidines
Kd [20]: 0.37 nM

B18: ligand 12 (ssRNA)
RNA: GGGAGCUCAGAAUAAACGCUCAAGCAGACGAAGGGAACCUGCGUCUCGGCACCUUCGACAUGAGGCCCGGAUCCGGC
Kd [21]: 0.48 nM

B19: 24A (ssRNA)
RNA: GGGAGACAAGAAUAACGCUCAACCCUGAUGGUAGACGCCGGGGUGCCGGAAUUCGACAGGAGGCUCACAACAGGC
modifications: 2'-NH2 pyrimidines
Kd [22]: 0.71 nM

B20: 41A (ssRNA)
RNA: GGGAGACAAGAAUAACGCUCAAAACGGAGUGGUAGGCGUUGGGUGCCAGGAAUUCGACAGGAGGCUCACAACAGGC
modifications: 2'-NH2 pyrimidines
Kd [23]: 0.86 nM

B21: ligand 100 (ssRNA)
RNA: GGGAGCUCAGAAUAAACGCUCAACCGGUAGUCGCAUGGCCCAUCGCGCCCGGUUCGACAUGAGGCCCGGAUCCGGC
Kd [24]: 0.2 nM

B22: ligand 12t (ssRNA)
RNA: GGAAGGGAACCUGCGUCUCGGCACCUUCG
Kd [25]: 1.1 nM
